Substrate in this data set: O=[N+]([O-])O
Description: cells, lysate or membranes. Further details: species or system Nicotiana tabacum. Conditions: whole roots of 2-day N-starved tobacco plants (wild-type K326 background subtracted); 5–500 μM nitrate; labelled compound (15N).

These results are taken from article PMC10011135, “Molecular identification and physiological functional analysis of NtNRT1.1B that mediated nitrate long-distance transport and improved plant growth when overexpressed in tobacco” (Frontiers in Plant Science, 2023).

For orientation: Km means the concentration of substrate that gives half-maximal velocity.

B1: NtNRT1.1B (Nicotiana tabacum) (protein)
chain: MALPETQQDSKALPDAWDYKGRPALRSSSGGWASGAMILGVEAVERLTTLGIAVNLVTYLTGTMHLGNATAANNVTNFLGTSFMLTLFGGFVADTFLGRYLTIGIFATVQAMGVTILTISTIIPSLRPPKCEQVGSSSCIPANSKQLMVLYIALYMTALGTGGLKSSVSGFGTDQFDDADKKEKGQMIKFFDWFFFFINVGSLGAVTVLVYIQDNLGREWGYGICACAIVIGLVVFLSGTRKYRFKKLVGSPLTQIASVIVAAWKKRHLELLSDSSLLFEIDDIFGEGNKKNKQKLPHSKEYRFLDKAAIKEDHDLESNGTNVVINKWKLATLTDVEEVKLLIRMLPTWATTIMFWTVYAQMTTFSVSQATTMDRHIGTFEIPPASLTVFFVGSILLTVIFYDRVIVPICRRFMNKPHGLTPLQRIFTGLVLSILAMIAAALTEVKRLKVAHLHGLTNDANATIPLSVFWLVPQFLLVGAGEAFTYIGQLDFFLRECPKGMKTMSTGLFLSTLALGFFFSSILVTIVHVVTGTTNPWLADNLNQGRLYDFYWLLAILSVLNLMFFLYFSRKYVYKEKRLAEMGIELEDDGPVCH
notes: full-length untagged ORF (1,785 bp, 594 residues) under CaMV 35S promoter, overexpressed in tobacco K326 (line L1); formerly named NtNRT1.2 (Liu et al., 2018)
Consider B1, for which the Km came to 29.05 ± 3.34 µM.
